Data on two substances can be found in PMC12182672.

In the assay the target is host plasminogen (Plg), porcine (pig). Nature of the assay: ELISA; microtiter plates coated with 0.8 ug/well Plg in 50 mM carbonate-bicarbonate buffer pH 9.8; His-tagged proteins added at 1 ug/mL; detected with His-tag monoclonal antibody and HRP anti-mouse; OD450. On the technique in general: An ELISA detects its analyte on a solid surface through an enzyme-linked reagent.

“truncated rMhp390(27-247) (domain or fragment)” showed a fold binding activity (OD450) over the negative control rNOD1 of 2.56 fold. For the substance “truncated rMhp390(425-604) (domain or fragment)”, the fold binding activity (OD450) over the negative control rNOD1 was determined as 2.68 fold.
